The values below come from patent US20250276070A1 (HOSPITAL FOR SICK CHILDREN, published 2025).

Bounds are passed on as bounds.

For one assay, the target named is soluble CD4 (UniProt P01730 26-390). The experiment in a line: BLI, His-tagged target on Ni-NTA.
Another assay concerns the target T1, BG5050 SOSIP.664 D368R (HIV-1).
T1 construct: also called BG505 SOSIP D368R; BG505 SOSIP.664_D368R trimer
In words: BLI, His-tagged target on Ni-NTA.

In assay [1] the target is T2, T-01 MB.v2 IgG1 M428L N434S (LS).
T2 construct: also called T-01 MB.v2 IgG1 LS
The experiment in a line: BLI, His-tagged receptor on Ni-NTA.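 Further: octet RED96 biolayer interferometry of Fc-mutant Multabodies binding human FcγRI, FcγRIIa or FcγRIIb, with the His-tagged receptors captured on Ni-NTA biosensors.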 For orientation: In BLI a coated tip is dipped into the sample, and binding shifts an interference pattern.

The target of another assay is T3, T-01 MB IgG1 LALAP K288A.
T3 construct: also called K288A+LALAP
In words: BLI, His-tagged receptor on Ni-NTA.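 Further: octet RED96 biolayer interferometry of Fc-mutant Multabodies binding human FcγRI, FcγRIIa or FcγRIIb, with the His-tagged receptors captured on Ni-NTA biosensors.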

A further assay deals with T4, T-01 MB IgG1 WT.
T4 construct: also called T-01 MB with wild-type IgG1 Fc
In words: BLI, His-tagged receptor on Ni-NTA.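 Further: octet RED96 biolayer interferometry of Fc-mutant Multabodies binding human FcγRI, FcγRIIa or FcγRIIb, with the His-tagged receptors captured on Ni-NTA biosensors.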

For the next assay, the target named is T-01 MB IgG2 K288A P329G. The experiment in a line: BLI, His-tagged receptor on Ni-NTA.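 Further: octet RED96 biolayer interferometry of Fc-mutant Multabodies binding human FcγRI, FcγRIIa or FcγRIIb, with the His-tagged receptors captured on Ni-NTA biosensors.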
The target of assay [2] is T5, T-01 MB IgG1 L234A L235A (LALA).
T5 construct: also called T-01 MB IgG1 LALA
In words: BLI, His-tagged receptor on Ni-NTA.

In another assay the target is T6, T-01 MB IgG1 LALAP I253A.
T6 construct: also called I253A+LALAP
The experiment in a line: BLI, His-tagged receptor on Ni-NTA.

In the next assay the target is T-01 MB IgG2 WT. In words: BLI, His-tagged receptor on Ni-NTA.
In a further assay the target is T-01 MB IgG1 I253A. The experiment in a line: BLI, His-tagged receptor on Ni-NTA.
The target of another assay is T-01 MB IgG1 K288A. The experiment in a line: BLI, His-tagged receptor on Ni-NTA.
The next assay addresses T7, T-01 MB.v2 IgG1 WT.
T7 construct: also called Multabody v2
The experiment in a line: BLI, His-tagged receptor on Ni-NTA.

The target in assay [3] is T-01 MB IgG1 LALA P329G (LALAP). In words: BLI, His-tagged receptor on Ni-NTA.
The target in a further assay is T-01 MB IgG1 P329G. The experiment in a line: BLI, His-tagged receptor on Ni-NTA.
The target in the next assay is T-01 MB IgG4 WT. The experiment in a line: BLI, His-tagged receptor on Ni-NTA.
The target of another assay is T-01 MB IgG1 I253V. In words: BLI, His-tagged receptor on Ni-NTA.

B1: N49P7 IgG1 (antibody, V domains shown)
VH: ADLVQSGAVVKKPGDSVRISCEAQGYRFPDYIIHWIRRAPGQGPEWMGWMNPMGGQVNIPWKFQGRVSMTRDTSIETAFLDLRGLKSDDTAVYYCVRDRSNGSGKRFESSNWFLDLWGRGTAVTIQS
VL: QSALTQPRSVSASPGQSVTISCTGTHNLVSWCQHQPGRAPKLLIYDFNKRPSGVPDRFSGSGSGGTASLTITGLQDDDDAEYFCWAYEAFGGGTKLTVLG
In the case of B1, in the assay with soluble CD4, the binding result is given as “no binding”.

B2: PGDM1400 IgG1 (antibody, V domains shown)
VH: QAQLVQSGPEVRKPGTSVKVSCKAPGNTLKTYDLHWVRSVPGQGLQWMGWISHEGDKKVIVERFKAKVTIDWDRSTNTAYLQLSGLTSGDTAVYYCAKGSKHRLRDYALYDDDGALNWAVDVDYLSNLEFWGQGTAVTVSS
VL: DFVLTQSPHSLSVTPGESASISCKSSHSLIHGDRNNYLAWYVQKPGRSPQLLIYLASSRASGVPDRFSGSGSDKDFTLKISRVETEDVGTYYCMQGRESPWTFGQGTKVDIKR
The Kd is the equilibrium constant for the complex coming apart. One may read the koff as a measure of how fast the partners let go of each other. High values mean fast dissociation, low ones slow dissociation. What is called kon is the second-order rate constant of association. For the molecule B2, the binding result in the assay with soluble CD4 is given as “no binding”. In the assay with BG5050 SOSIP.664 D368R, this molecule showed a Kd of 38 nM, a koff of 0.000262 s⁻¹ and a kon of 6900 M⁻¹ s⁻¹.

B3: 10E8v4 IgG1 (antibody, V domains shown)
VH: EVRLVESGGGLVKPGGSLRLSCSASGFDFDNAWMTWVRQPPGKGLEWVGRITGPGEGWSVDYAESVKGRFTISRDNTKNTLYLEMNNVRTEDTGYYFCARTGKYYDFWSGYPPGEEYFQDWGQGTLVIVSS
VL: SELTQDPAVSVALKQTVTITCRGDSLRSHYASWYQKKPGQAPVLLFYGKNNRPSGIPDRFSGSASGNRASLTITGAQAEDEADYYCSSRDKSGSRLSVFGGGTKLTVLS
As to B3, the binding result in the assay with soluble CD4 is given as “no binding”.

B4: human Fcγ receptor I (hFcγRI) (receptor, UniProt P12314 16-288, looked up)
chain: QVDTTKAVITLQPPWVSVFQEETVTLHCEVLHLPGSSSTQWFLNGTATQTSTPSYRITSASVNDSGEYRCQRGLSGRSDPIQLEIHRGWLLLQVSSRVFTEGEPLALRCHAWKDKLVYNVLYYRNGKAFKFFHWNSNLTILKTNISHNGTYHCSGMGKHRYTSAGISVTVKELFPAPVLNASVTSPLLEGNLVTLSCETKLLLQRPGLQLYFSFYMGSKTLRGRNTSSEYQILTARREDSGLYWCEAATEDGNVLKRSPELELQVLGLQLPTP
As for B4, the Kd is under 0.001 nM in assay [1]; 0.269 nM in the assay with T-01 MB IgG1 LALAP K288A; under 0.001 nM with T-01 MB IgG1 WT; 0.132 nM with T-01 MB IgG2 K288A P329G; 0.0297 nM in assay [2]; 0.768 nM in the assay with T-01 MB IgG1 LALAP I253A. Also, the Kd with T-01 MB IgG2 WT was 2.03 nM; with T-01 MB IgG1 I253A, under 0.001 nM; with T-01 MB IgG1 K288A, under 0.001 nM; with T-01 MB.v2 IgG1 WT, under 0.001 nM; in [3], 0.684 nM; with T-01 MB IgG1 P329G, 0.0375 nM. Besides, the Kd with T-01 MB IgG4 WT and with T-01 MB IgG1 I253V was under 0.001 nM throughout. Further, the koff in assay [1] is under 1e-07 s⁻¹; with T-01 MB IgG1 LALAP K288A, 0.000161 s⁻¹; in the assay with T-01 MB IgG1 WT it was under 1e-07 s⁻¹; in the assay with T-01 MB IgG2 K288A P329G, 9.13e-05 s⁻¹; in [2], 1.66e-05 s⁻¹; with T-01 MB IgG1 LALAP I253A it was 0.000656 s⁻¹. The koff with T-01 MB IgG2 WT was 0.00154 s⁻¹; with T-01 MB IgG1 I253A, under 1e-07 s⁻¹; with T-01 MB IgG1 K288A, under 1e-07 s⁻¹; with T-01 MB.v2 IgG1 WT it was under 1e-07 s⁻¹; in assay [3], 0.000437 s⁻¹; in the assay with T-01 MB IgG1 P329G, 2.49e-05 s⁻¹. Moreover, the koff with T-01 MB IgG4 WT and with T-01 MB IgG1 I253V was under 1e-07 s⁻¹ each time. Also, the on-rate (kon) in assay [1] amounted to 431000 M⁻¹ s⁻¹; with T-01 MB IgG1 LALAP K288A it was 601000 M⁻¹ s⁻¹; with T-01 MB IgG1 WT, 672000 M⁻¹ s⁻¹; with T-01 MB IgG2 K288A P329G, 694000 M⁻¹ s⁻¹; in [2], 558000 M⁻¹ s⁻¹; with T-01 MB IgG1 LALAP I253A, 853000 M⁻¹ s⁻¹. The kon amounted to 758000 M⁻¹ s⁻¹ with T-01 MB IgG2 WT; 605000 M⁻¹ s⁻¹ with T-01 MB IgG1 I253A; 578000 M⁻¹ s⁻¹ in the assay with T-01 MB IgG1 K288A; 312000 M⁻¹ s⁻¹ with T-01 MB.v2 IgG1 WT; 639000 M⁻¹ s⁻¹ in assay [3]; 665000 M⁻¹ s⁻¹ with T-01 MB IgG1 P329G. In addition, the kon with T-01 MB IgG4 WT was 835000 M⁻¹ s⁻¹; with T-01 MB IgG1 I253V it was 756000 M⁻¹ s⁻¹.

B5: human FcγRIIa (hFcγRIIa) (receptor, UniProt P12318 34-217, looked up)
chain: QAAAPPKAVLKLEPPWINVLQEDSVTLTCQGARSPESDSIQWFHNGNLIPTHTQPSYRFKANNNDSGEYTCQTGQTSLSDPVHLTVLSEWLVLQTPHLEFQEGETIMLRCHSWKDKPLVKVTFFQNGKSQKFSHLDPTFSIPQANHSHSGDYHCTGNIGYTLFSSKPVTITVQVPSMGSSSPMG
For B5, the binding result (in assay [1]; with T-01 MB IgG1 LALAP K288A; with T-01 MB IgG2 K288A P329G; in the assay with T-01 MB IgG1 LALAP I253A; with T-01 MB.v2 IgG1 WT; in assay [3]) was “no binding (tested: serial dilutions 20-0.65 nM)” throughout. The Kd is under 0.001 nM with T-01 MB IgG1 WT; 0.208 nM in assay [2]; 0.606 nM in the assay with T-01 MB IgG2 WT; under 0.001 nM with T-01 MB IgG1 I253A; under 0.001 nM with T-01 MB IgG1 K288A; 0.249 nM with T-01 MB IgG1 P329G. In addition, the Kd is 0.391 nM in the assay with T-01 MB IgG4 WT and under 0.001 nM in the assay with T-01 MB IgG1 I253V. For the same molecule, the koff with T-01 MB IgG1 WT was under 1e-07 s⁻¹; in assay [2], 0.000121 s⁻¹; with T-01 MB IgG2 WT it was 0.000263 s⁻¹; with T-01 MB IgG1 I253A, under 1e-07 s⁻¹; with T-01 MB IgG1 K288A, under 1e-07 s⁻¹; in the assay with T-01 MB IgG1 P329G, 5.53e-05 s⁻¹. In addition, the koff was 0.000445 s⁻¹ with T-01 MB IgG4 WT and under 1e-07 s⁻¹ with T-01 MB IgG1 I253V. The kon in the assay with T-01 MB IgG1 WT is 963000 M⁻¹ s⁻¹; in assay [2], 581000 M⁻¹ s⁻¹; in the assay with T-01 MB IgG2 WT it was 433000 M⁻¹ s⁻¹; with T-01 MB IgG1 I253A, 763000 M⁻¹ s⁻¹; with T-01 MB IgG1 K288A, 1.07e+06 M⁻¹ s⁻¹; in the assay with T-01 MB IgG1 P329G, 222000 M⁻¹ s⁻¹. Further, the kon in the assay with T-01 MB IgG4 WT was 1.14e+06 M⁻¹ s⁻¹; with T-01 MB IgG1 I253V it was 1.09e+06 M⁻¹ s⁻¹.

B6: human FcγRIIb (hFcγRIIb) (receptor, UniProt P31994 43-217, looked up)
chain: TPAAPPKAVLKLEPQWINVLQEDSVTLTCRGTHSPESDSIQWFHNGNLIPTHTQPSYRFKANNNDSGEYTCQTGQTSLSDPVHLTVLSEWLVLQTPHLEFQEGETIVLRCHSWKDKPLVKVTFFQNGKSKKFSRSDPNFSIPQANHSHSGDYHCTGNIGYTLYSSKPVTITVQAP
In the case of B6, the binding result (in [1]; with T-01 MB IgG1 LALAP K288A; with T-01 MB IgG2 K288A P329G; with T-01 MB IgG1 LALAP I253A; in the assay with T-01 MB.v2 IgG1 WT; in assay [3]) was “no binding (tested: serial dilutions 20-0.65 nM)” each time. The binding result with T-01 MB IgG1 P329G is listed as “no binding (tested: serial dilutions 20-0.65 nM)”. Besides, the Kd with T-01 MB IgG1 WT was under 0.001 nM; in assay [2], 0.607 nM; in the assay with T-01 MB IgG2 WT it was 1.61 nM; with T-01 MB IgG1 I253A, under 0.001 nM; with T-01 MB IgG1 K288A it was under 0.001 nM; with T-01 MB IgG4 WT it was 0.223 nM. This molecule yielded a Kd with T-01 MB IgG1 I253V of under 0.001 nM. Also, the dissociation rate constant (koff) was under 1e-07 s⁻¹ with T-01 MB IgG1 WT; 0.000394 s⁻¹ in assay [2]; 0.00103 s⁻¹ with T-01 MB IgG2 WT; under 1e-07 s⁻¹ in the assay with T-01 MB IgG1 I253A; under 1e-07 s⁻¹ in the assay with T-01 MB IgG1 K288A; 0.000305 s⁻¹ with T-01 MB IgG4 WT. Moreover, the koff with T-01 MB IgG1 I253V is under 1e-07 s⁻¹. Further, the on-rate constant (kon) with T-01 MB IgG1 WT came out at 1.19e+06 M⁻¹ s⁻¹; in assay [2], 649000 M⁻¹ s⁻¹; with T-01 MB IgG2 WT, 637000 M⁻¹ s⁻¹; with T-01 MB IgG1 I253A it was 1.39e+06 M⁻¹ s⁻¹; with T-01 MB IgG1 K288A it was 1.25e+06 M⁻¹ s⁻¹; with T-01 MB IgG4 WT, 1.37e+06 M⁻¹ s⁻¹. Besides, in the assay with T-01 MB IgG1 I253V, the kon came out at 1.39e+06 M⁻¹ s⁻¹.
